Measurements published in article PMC9744909, “Functional crosstalk between the cohesin loader and chromatin remodelers” (Nature Communications, 2022).

B1: Sth1, the large ATPase subunit of the RSC remodeler complex (natural protein, S. cerevisiae)
chain: MLQEQSELMSTVMNNTPTTVAALAAVAAASETNGKLGSEEQPEITIPKPRSSAQLEQLLYRYRAIQNHPKENKLEIKAIEDTFRNISRDQDIYETKLDTLRKSIDKGFQYDEDLLNKHLVALQLLEKDTDVPDYFLDLPDTKNDNTTAIEVDYSEKKPIKISADFNAKAKSLGLESKFSNATKTALGDPDTEIRISARISNRINELERLPANLGTYSLDDCLEFITKDDLSSRMDTFKIKALVELKSLKLLTKQKSIRQKLINNVASQAHHNIPYLRDSPFTAAAQRSVQIRSKVIVPQTVRLAEELERQQLLEKRKKERNLHLQKINSIIDFIKERQSEQWSRQERCFQFGRLGASLHNQMEKDEQKRIERTAKQRLAALKSNDEEAYLKLLDQTKDTRITQLLRQTNSFLDSLSEAVRAQQNEAKILHGEEVQPITDEEREKTDYYEVAHRIKEKIDKQPSILVGGTLKEYQLRGLEWMVSLYNNHLNGILADEMGLGKTIQSISLITYLYEVKKDIGPFLVIVPLSTITNWTLEFEKWAPSLNTIIYKGTPNQRHSLQHQIRVGNFDVLLTTYEYIIKDKSLLSKHDWAHMIIDEGHRMKNAQSKLSFTISHYYRTRNRLILTGTPLQNNLPELWALLNFVLPKIFNSAKTFEDWFNTPFANTGTQEKLELTEEETLLIIRRLHKVLRPFLLRRLKKEVEKDLPDKVEKVIKCKLSGLQQQLYQQMLKHNALFVGAGTEGATKGGIKGLNNKIMQLRKICNHPFVFDEVEGVVNPSRGNSDLLFRVAGKFELLDRVLPKFKASGHRVLMFFQMTQVMDIMEDFLRMKDLKYMRLDGSTKTEERTEMLNAFNAPDSDYFCFLLSTRAGGLGLNLQTADTVIIFDTDWNPHQDLQAQDRAHRIGQKNEVRILRLITTDSVEEVILERAMQKLDIDGKVIQAGKFDNKSTAEEQEAFLRRLIESETNRDDDDKAELDDDELNDTLARSADEKILFDKIDKERMNQERADAKAQGLRVPPPRLIQLDELPKVFREDIEEHFKKEDSEPLGRIRQKKRVYYDDGLTEEQFLEAVEDDNMSLEDAIKKRREARERRRLRQNGTKENEIETLENTPEASETSLIENNSFTAAVDEETNADKETTASRSKRRSSRKKRTISIVTAEDKENTQEESTSQENGGAKVEEEVKSSSVEIINGSESKKKKPKLTVKIKLNKTTVLENNDGKRAEEKPESKSPAKKTAAKKTKTKSKSLGIFPTVEKLVEEMREQLDEVDSHPRTSIFEKLPSKRDYPDYFKVIEKPMAIDIILKNCKNGTYKTLEEVRQALQTMFENARFYNEEGSWVYVDADKLNEFTDEWFKEHSS
notes: Sth1, budding yeast, as it stands in the purified RSC complex; Present within m2 in the cross-linking experiment; also called RSC ATPase; source: subunit of RSC purified from budding yeast (TAP-tagged Rsc2)

Tests used:
Conditions in all cases: both partners purified
[1] = molecular target: T1, Scc2 subunit of the cohesin loader (S. cerevisiae, UniProt Q04002 1-1493); assay: cross-linking; 0.5 uM cohesin loader and 0.5 uM RSC in CLMS buffer (22.5 mM HEPES-KOH pH 7.5, 75 mM NaCl, 100 mM potassium acetate, 10% glycerol, 0.5 mM TCEP), 1 mM DSSO 15 min 37 C, trypsin digest, tandem mass spectrometry; two biological repeats
T1 construct: Scc2, budding yeast, as it stands in the purified Scc2-Scc4 complex; Present within m1 in the cross-linking experiment; tags as told under m1; source: subunit of Scc2-Scc4 purified from budding yeast (overexpressed)
T1 sequence (looked up): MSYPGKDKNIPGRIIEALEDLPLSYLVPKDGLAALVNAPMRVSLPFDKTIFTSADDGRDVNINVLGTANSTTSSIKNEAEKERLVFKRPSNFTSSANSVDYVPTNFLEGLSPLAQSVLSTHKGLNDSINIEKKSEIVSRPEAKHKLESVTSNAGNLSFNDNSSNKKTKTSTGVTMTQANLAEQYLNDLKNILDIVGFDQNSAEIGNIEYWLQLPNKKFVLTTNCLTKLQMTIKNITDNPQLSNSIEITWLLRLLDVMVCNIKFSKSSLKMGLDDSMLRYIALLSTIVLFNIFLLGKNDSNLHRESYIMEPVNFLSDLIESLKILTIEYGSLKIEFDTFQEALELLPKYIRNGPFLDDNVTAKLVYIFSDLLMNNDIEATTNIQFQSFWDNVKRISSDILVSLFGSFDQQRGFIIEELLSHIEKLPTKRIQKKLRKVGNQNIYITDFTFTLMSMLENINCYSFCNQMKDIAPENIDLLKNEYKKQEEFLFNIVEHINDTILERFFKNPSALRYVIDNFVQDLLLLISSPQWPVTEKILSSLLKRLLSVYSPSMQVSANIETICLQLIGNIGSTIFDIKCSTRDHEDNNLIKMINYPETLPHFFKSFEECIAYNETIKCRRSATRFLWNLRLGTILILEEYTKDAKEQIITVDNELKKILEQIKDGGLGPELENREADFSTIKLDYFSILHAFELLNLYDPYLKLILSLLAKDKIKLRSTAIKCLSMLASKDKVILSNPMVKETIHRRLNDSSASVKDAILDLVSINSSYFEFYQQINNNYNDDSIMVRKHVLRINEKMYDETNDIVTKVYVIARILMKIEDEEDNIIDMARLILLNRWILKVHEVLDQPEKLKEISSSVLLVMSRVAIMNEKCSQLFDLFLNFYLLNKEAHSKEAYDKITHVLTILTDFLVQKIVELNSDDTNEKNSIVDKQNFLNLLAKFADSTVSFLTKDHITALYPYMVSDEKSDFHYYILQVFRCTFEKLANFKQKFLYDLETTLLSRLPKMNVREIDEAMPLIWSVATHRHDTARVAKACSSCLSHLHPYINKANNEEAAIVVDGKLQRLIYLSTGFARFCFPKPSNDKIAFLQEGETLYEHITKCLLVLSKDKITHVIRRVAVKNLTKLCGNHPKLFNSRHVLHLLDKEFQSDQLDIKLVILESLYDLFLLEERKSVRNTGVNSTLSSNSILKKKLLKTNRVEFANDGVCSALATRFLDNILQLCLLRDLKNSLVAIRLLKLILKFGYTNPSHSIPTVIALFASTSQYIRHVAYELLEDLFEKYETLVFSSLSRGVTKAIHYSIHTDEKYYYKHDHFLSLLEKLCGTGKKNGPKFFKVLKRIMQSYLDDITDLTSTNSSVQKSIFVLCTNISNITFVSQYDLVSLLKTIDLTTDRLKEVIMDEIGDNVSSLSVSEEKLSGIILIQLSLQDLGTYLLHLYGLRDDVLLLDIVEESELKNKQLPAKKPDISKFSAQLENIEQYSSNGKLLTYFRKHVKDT

[2] = molecular target: T2, Scc2-Scc4 cohesin loader complex (S. cerevisiae, UniProt Q04002 1-1493; P40090 1-624); assay: co-IP; 50 nM Scc2-Scc4 and 50 nM RSC or Sth1 365-1097 mixed in IP buffer (25 mM Tris-HCl pH 7.5, 100 mM NaCl, 2.5 mM MgCl2, 0.2% Triton X-100, 5% glycerol, 0.5 mM TCEP), loader captured on anti-HA protein A magnetic beads, last wash 300 mM NaCl; Sth1 detected by immunoblotting
T2 construct: Scc2, cohesin loader subunit, budding yeast; Scc4, cohesin loader subunit, budding yeast; Purified by a protein A tag that was removed by 3C protease; also called 2-4

[3] = molecular target: B1; assay: cross-linking; 0.5 uM cohesin loader and 0.5 uM RSC in CLMS buffer (22.5 mM HEPES-KOH pH 7.5, 75 mM NaCl, 100 mM potassium acetate, 10% glycerol, 0.5 mM TCEP), 1 mM DSSO 15 min 37 C, trypsin digest, tandem mass spectrometry; two biological repeats

**Q.** Does B1 bind [1]?
**A.** binds

B2: Sth1 365-1097 fragment (ATPase motor module) (domain or fragment, S. cerevisiae, UniProt P32597 365-1097, looked up)
chain: DEQKRIERTAKQRLAALKSNDEEAYLKLLDQTKDTRITQLLRQTNSFLDSLSEAVRAQQNEAKILHGEEVQPITDEEREKTDYYEVAHRIKEKIDKQPSILVGGTLKEYQLRGLEWMVSLYNNHLNGILADEMGLGKTIQSISLITYLYEVKKDIGPFLVIVPLSTITNWTLEFEKWAPSLNTIIYKGTPNQRHSLQHQIRVGNFDVLLTTYEYIIKDKSLLSKHDWAHMIIDEGHRMKNAQSKLSFTISHYYRTRNRLILTGTPLQNNLPELWALLNFVLPKIFNSAKTFEDWFNTPFANTGTQEKLELTEEETLLIIRRLHKVLRPFLLRRLKKEVEKDLPDKVEKVIKCKLSGLQQQLYQQMLKHNALFVGAGTEGATKGGIKGLNNKIMQLRKICNHPFVFDEVEGVVNPSRGNSDLLFRVAGKFELLDRVLPKFKASGHRVLMFFQMTQVMDIMEDFLRMKDLKYMRLDGSTKTEERTEMLNAFNAPDSDYFCFLLSTRAGGLGLNLQTADTVIIFDTDWNPHQDLQAQDRAHRIGQKNEVRILRLITTDSVEEVILERAMQKLDIDGKVIQAGKFDNKSTAEEQEAFLRRLIESETNRDDDDKAELDDDELNDTLARSADEKILFDKIDKERMNQERADAKAQGLRVPPPRLIQLDELPKVFREDIEEHFKKEDSEPLGRIRQKKRVYYDDGLTEEQFLEAVEDDNMSLEDAIKKRREARERRRLRQ
notes: Cloned into pGEX-6P-2; also called Sth1 ATPase module; source: E. coli BL21 Star (DE3) pLysS, purified (glutathione-sepharose, 3C protease cleavage, Superdex 200)
**Q.** Does B2 bind [2]?
**A.** binds

B3: Scc4 subunit of the cohesin loader (natural protein, S. cerevisiae)
chain: MENLGDKLSISQVYHLAQEYRDHAYSIANKIGSEEGLKQYYGLMNMSIQMFQLLKTKCTLSVLEDSKVTFEMVELLIQETYNFDLAELYISSLKERLQTHQSDTDLVEEIMRCEFLLLHDLPLMRDSKFHYKIALRNCNELVQYMVNLQDELYQNWASVFQYVGVMLCIKLKQHRRVKTSFHGLLSQCREKSQWKWFLNLCYVNYLLNERFPIPEDALQELRSTELHTVGPELYAWKLALEMVIQLCKDGNITDHLNEFKNFFDTNKQSLVTNEGKGCVIKIMPRIALKVELPMIFHYKELKNILLLLQSVSYIVNCYDEKGNFSRKFLPKVYSTTQKLIKNIAAGGVSMNELDSRIQTYKSILEFCEFYKVWEQTLLKGAVVTTESPKLGPSPGYVRLLQAMKVQFEGGGAVEEYTRLAQSGGTSSEVKMISLLNCYTVQAARVSRCSGDKQGELVEQCNKVWLQVEKLLQETDLQFNPIWECTVTILWLFSHFEPFSWNPLPCSDKQRAEYVSKLREFYSSNKFVAGEAVADNRFKLKKALLLQILVNYLGGRMLEHDLGEIYAISAKCFDMCRQQGGMRKVQYVIGIWHLMNCTVAMRGKDVALTNAKLEALVKQITSVKQ
notes: Scc4, budding yeast, as it stands in the purified Scc2-Scc4 complex; Present within m1 in the cross-linking experiment; tags as told under m1; source: subunit of Scc2-Scc4 purified from budding yeast (overexpressed)
**Q.** Does B3 bind [3]?
**A.** binds
